{"source": "patent US20190345216A1", "about": "“SorCS PEPTIDES AND USES THEREOF” (AARHUS UNIVERSITET, priority 2015, published 2019)", "molecules": {"B1": {"name": "BDNF: brain-derived neurotrophic factor, ligand of tyrosine kinase receptor TrkB (protein, UniProt P23560 19-247, looked up)", "Neurotrophic factor BDNF …": "APMKEANIRGQGGLAYPGVRTHGTLESVNGPKAGSRGLTSLADTFEHVIEELLDEDQKVRPNEENNKDADLYTSRVMLSSQVPLEPPLLFLLEEYKNYLDAANMSMRVRRHSDPARRGELSVCDSISEWVTAADKKTAVDMSGGTVTVLEKVPVSKGQLKQYFYETKCNPMGYTKEGCRGIDKRHWNSQCRTTQSYVRALTMDSKKRIGWRFIRIDTSCVCTLTIKRGR"}}, "key": {"[1]": {"system": "Wild type and SorCS2−/− mice", "assay": "Marble burying test", "format": "in vivo, mouse", "settings": "fluoxetine 20 mg/kg injected 1 hour before, 20 min test", "text": "The SorCS2 knockout mouse has been back-crossed for ten generations into C57/BL6J. Behavioral studies were done with the backcrossed homozygous mice compared to the same C57/BL6J substrain that was used for backcrossing (Glerup, Olsen et al., 2014). In the presented experiments, all mice lines had been backcrossed for ten generations into C57/BL6Jbom (Taconic) and littermate controls were used for experiments. All experiments were approved by the Danish Animal Experiments Inspectorate under the Ministry of Justice (Permit 2011/561-119) and carried according to institutional and national guidelines. All animals were bred and housed at the Animal Facility at Aarhus University. Animals were housed in groups of up to five mice per plastic cage (42×25×15 cm) under pathogen-free conditions with a 12-hour light/12-hour dark schedule and fed standard chow (Altromin #1324) and water ad libitum. Cages were cleaned every week and supplied with bedding and nesting material, a wooden stick, and a metal tunnel. Behavioral experiments were carried out using 12-16 weeks old male mice during their light cycle between 9:00 a.m. to 5:00 p.m. […]\nWild type and SorCS2^−/− mice were injected with either saline only or saline containing 20 mg/ml (20 mg/kg) fluoxetine (trade name Prozac™). […] They were then left for 20 min and hereafter the number of marbles that were more than 50% buried in each cage was counted."}, "SorCS2 [2]": {"system": "SorCS2", "assay": "Western blot of SorCS2 expression in hippocampus and cortex after fluoxetine", "format": "in vivo, mouse", "settings": "wt mice, fluoxetine in water for 3 weeks", "method": "3 wild-type mice were given either normal tap water or tap water containing 0.8 mg/ml fluoxetine for 3 weeks with water-chance once a week. Hereafter, the mice were euthanized by cervical dislocation and the hippocampus and cortex was dissected out. The samples were lysed in lysis buffer containing protease and phosphatase inhibitors. The samples were then analysed by Western blotting to see if treatment with fluoxetine can increase SorCS2 levels."}, "SorCS2−/− neurons": {"system": "SorCS2−/− neurons", "assay": "BDNF-mediated branching of SorCS2−/− neurons transfected with SorCS2 constructs", "format": "cell-based, mouse", "experimental": "To study the role of SorCS2 in BDNF-mediated branching (FIG. 4B-G), SorCS2^−/− neurons were seeded at a density of 100.000 neurons pr coverslip in media containing the desired SorCS2 mutant together with GFP. After 6 hours, the medium was changed to normal neurobasal A medium containing either 1 nM BDNF or similar volume of sterile PBS. The neurons were incubated for 72 hrs at 37° C. and 5% CO2 before being fixed for 20 min in ice cold 4% PFA, before a three times 5 min washes in D-PBSPictures were taken using a confocal microscope and the branching patterns were analysed using Zen 2011 Image Processing (Carl Zeiss) as follows: The 1st, 2nd, 3rd and 4th order branching patterns of GFPpositive neurons were counted where 1st order branches were defined as neurites protruding from the cell soma and were only considered 1st order branches if the branch was longer than the diameter of the soma. 2nd order branches were defined as processes extending from the 1st order branch, and so forth. […]"}, "wild type neurons": {"system": "wild type neurons", "assay": "Morphological (neurotrophic) response of wild type neurons to SorCS2 tail peptides", "format": "cell-based, mouse", "settings": "wt neurons; 1 nM BDNF", "experimental": "(§1) To determine dendritic branching of neurons in vitro, hippocampal neurons were isolated from PO mice and grown in culture at a density of 5000 neurons per coverslip. After 24 hours the medium was changed to medium containing either 1 nM of BDNF or same volume of sterile PBS. Hereafter, the cells were left in the incubator at 37° C. for 72 hours before being fixed in 4% PFA for 20 minutes at room temperature. To determine cell morphology, the neurons were stained against β-tubulin (β-tubulin mouse mAb chemicon MAB3408). Images were taken using a confocal microscope and the branching patterns were analysed using Zen 2011 Image Processing (Carl Zeiss) as follows: The 1st, 2nd, 3rd and 4th order branching patterns the neurons were counted where 1S^t order branches were defined as neurites protruding from the cell soma and were only considered 1st order branches if the branch was longer than the diameter of the soma. 2nd order branches were defined as processes extending from the 1st order branch, and so forth.\nWe next created peptides similar to the intracellular tail of SorCS2. The first peptide had similar sequence to wild type SorCS2 tail except the serines at position 1125, 1128 and 1130, which had been changed to aspartic acids. Furthermore a TAT sequence had been added to facilitate entry into the neurons (FIG. 11), denoted “Ppep”."}, "hippocampal neurons [3]": {"system": "hippocampal neurons", "assay": "BDNF induced formation of inhibitory synapses and spine density in vitro", "format": "cell-based, mouse", "settings": "1 nM BDNF; for number of glutamatergic synapses/spines: 24 hours; for number of inhibitory synapses: 72 hrs", "experimental": "For studies on BDNF induced formation of inhibitory synapses, neurons from p0 wild type (wt) and SorCS2^−/− pups were seeded at a density of 100.000 neurons per coverslip. After 7 days in vitro, the medium was changed to medium containing either 1 nM of BDNF or similar volumes of sterile D-PBS. Neurons were incubated for 72 hrs at 37° C. and 5% CO2 before being fixed for 20 min in ice cold 4% PFA. After three 5 min washes in D-PBS, the neurons were stained against gephyrin, an inhibitory marker, and co stained against Map2, a marker of the dendritic tree. Images were taken by confocal microscopy and analysed using Imaris software.\nTo determine spine density in vitro, hippocampal neurons were isolated at PO and grown in culture at a density of 100.000 neurons pr coverslip. After 7 days in vitro the neurons were transfected with a plasmid containing GFP using Lipofectamine LTX reagent (15338-100) using the suppliers protocol. At 13 days in vitro the medium was changed to medium containing either 1 nM or 0 nM BDNF. Hereafter the cells were left in the incubator at 37° C. for 24 hours before being fixed in 4% PFA for 20 minutes at room temperature. To determine spine density, confocal images were obtained and subsequently assessed using Imaris software."}, "PLCy": {"system": "PLCy", "assay": "PLCy phosphorylation in transfected hSY5Y cells", "format": "cell-based", "settings": "hSY5Y cells with SorCS2 and TrkB compared to only TrkB", "text": "(§2) In FIG. 6 it is shown that SorCS2 is important for phosphorylation of the BDNF-receptor TrkB.hSY5Y cells were transfected with either SorCS2, TrkB or both (FIG. 6, panels A and B). Upon stimulation with BDNF a 2.5 fold increase in phosphorylation of TrkB was seen when SorCS2 was also present, compared to when only TrkB was present (FIG. 6, panel B). […] This indicates a critical role of SorCS2 in mediating the response to BDNF"}, "TrkB": {"target": "T1, TrkB (Homo sapiens, UniProt Q16620)", "T1 construct": "expressed in transfected cells; host or cells: hSY5Y cells", "T1 sequence (Q16620 32-822, species assumed)": "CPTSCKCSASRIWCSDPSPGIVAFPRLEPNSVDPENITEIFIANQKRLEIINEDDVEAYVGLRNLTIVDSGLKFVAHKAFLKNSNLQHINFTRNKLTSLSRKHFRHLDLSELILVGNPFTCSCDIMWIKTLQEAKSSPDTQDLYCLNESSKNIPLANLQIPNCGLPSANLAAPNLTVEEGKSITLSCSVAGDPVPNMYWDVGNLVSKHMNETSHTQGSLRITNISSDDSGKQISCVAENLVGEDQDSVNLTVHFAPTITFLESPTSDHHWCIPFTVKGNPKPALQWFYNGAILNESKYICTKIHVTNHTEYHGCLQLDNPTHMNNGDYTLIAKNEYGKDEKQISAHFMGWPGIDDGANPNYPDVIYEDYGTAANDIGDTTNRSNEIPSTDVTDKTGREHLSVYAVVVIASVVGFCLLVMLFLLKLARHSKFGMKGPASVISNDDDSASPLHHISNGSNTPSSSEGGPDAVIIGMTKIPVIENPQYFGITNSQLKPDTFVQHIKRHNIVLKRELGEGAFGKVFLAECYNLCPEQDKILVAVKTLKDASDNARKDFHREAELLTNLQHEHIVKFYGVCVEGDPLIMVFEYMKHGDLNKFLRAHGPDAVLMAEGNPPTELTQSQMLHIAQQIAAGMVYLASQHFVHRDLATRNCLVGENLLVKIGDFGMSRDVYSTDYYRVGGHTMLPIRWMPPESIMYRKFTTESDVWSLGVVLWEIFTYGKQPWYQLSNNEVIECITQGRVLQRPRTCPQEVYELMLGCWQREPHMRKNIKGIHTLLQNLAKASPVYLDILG", "assay": "TrkB phosphorylation in transfected hSY5Y cells", "format": "cell-based", "settings": "hSY5Y cells with SorCS2 and TrkB compared to only TrkB", "text": "as §2"}, "SorCS2 [4]": {"system": "SorCS2", "assay": "SorCS2 phosphorylation (32P labelling, immunoprecipitation, autoradiography)", "format": "cell-based, mouse", "settings": "wt neurons; 1 nM BDNF 10 minutes vs unstimulated", "experimental": "For studies on SorCS2 phosphorylation (FIG. 4A), wt neurons were seeded at a density of 2.5 million pr 6-well. After five days in culture, the medium was changed to phosphate-free medium+0.4 mCi/ml of ^32P labelled phosphate and left for 4 hours 37° C. and 5% CO2. Hereafter, the neurons were washed once in phosphate-free medium and medium is added containing 1 nM BDNF or similar volume of sterile PBS. This is left on for 10 minutes before removing the media and adding lysis buffer containing protease- and phosphatase-inhibitors. From the samples, immunoprecipitation was carried out using antibodies against SorCS2. The samples were then analyzed by SDS-gel and subsequent autoradiography to evaluate the phosphorylation of SorCS2."}, "hippocampal neurons [5]": {"system": "hippocampal neurons", "assay": "Dendritic branching of neurons in vitro upon BDNF", "format": "cell-based, mouse", "settings": "1 nM BDNF", "experimental": "as §1\nFor studies on BDNF induced morphological changes of GABAergic interneurons, neurons from p3 WT and SorCS2^−/− pups were seeded at a density of 5.000 neurons per coverslip. The WT and SorCS2^−/− neurons were seeded in 1 mL Neurobasal-A Medium containing either 1 nM BDNF or similar volumes of sterile D-PBS. The neurons were incubated for 72 hrs at 37° C. and 5% CO2 before being fixed for 20 min in ice cold 4% PFA. After three 5 min washes in D-PBS, neurons were stained, against mouse anti-β-tubulin and rabbit anti-GABA. Pictures were taken using a confocal microscope and the branching patterns were analysed using Zen 2011 Image Processing (Carl Zeiss) as follows: The 1st, 2nd, 3rd and 4th order branching patterns the neurons were counted where 1st order branches were defined as neurites protruding from the cell soma and were only considered 1st order branches if the branch was longer than the diameter of the soma. 2nd order branches were defined as processes extending from the 1st order branch, and so forth."}}, "note": "Entries after “also recorded” stand apart in the source; their conditions may differ."}
{"molecule": "CNCCC(Oc1ccc(C(F)(F)F)cc1)c1ccccc1", "note": "(stereo not drawn) [fluoxetine]", "values": [{"measurement": "number of marbles buried", "setting": "[1]; SorCS2−/− mice", "result": "this effect was not observed; also recorded: this was not the case"}, {"measurement": "number of marbles buried", "setting": "[1]; wild type mice", "result": "calmed and buried less marbles"}, {"measurement": "expression of SorCS2 (Western blot)", "setting": "SorCS2 [2]; cortex", "result": "not in the cortex"}, {"measurement": "expression of SorCS2 (Western blot)", "setting": "SorCS2 [2]; hippocampus", "result": "increase"}]}
{"molecule": "B1", "values": [{"measurement": "neurite branching response to BDNF", "setting": "SorCS2−/− neurons; SorCS2−/− neurons transfected with S1128A variant", "result": "lost"}, {"measurement": "neurite branching response to BDNF", "setting": "SorCS2−/− neurons; SorCS2−/− neurons transfected with S1130A variant", "result": "lost"}, {"measurement": "neurite branching response to BDNF", "setting": "SorCS2−/− neurons; SorCS2−/− neurons transfected with full length SorCS2, 1 nM BDNF", "result": "rescues the response; also recorded: able to rescue response"}, {"measurement": "neurite branching response to BDNF", "setting": "SorCS2−/− neurons; SorCS2−/− neurons transfected with full-length variant S1125A, S1128A and S1130A", "result": "diminished"}, {"measurement": "neurite branching response to BDNF", "setting": "SorCS2−/− neurons; SorCS2−/− neurons transfected with variant lacking the intracellular domain", "result": "no increase in neurite branching"}, {"measurement": "neurite branching response to BDNF", "setting": "SorCS2−/− neurons; SorCS2−/− neurons transfected with variant with deletion of 56 amino acids", "result": "lost"}, {"measurement": "neurite branching response to BDNF", "setting": "SorCS2−/− neurons; SorCS2−/− neurons transfected with variant with deletion of the last 21 amino acids", "result": "still rescued the phenotype"}, {"measurement": "neurite branching response to BDNF", "setting": "SorCS2−/− neurons; SorCS2−/− neurons transfected with variant with deletion of the last 35 amino acids", "result": "still rescued the phenotype"}, {"measurement": "complexity of neurons compared to neurons without BDNF (FIG. 13)", "setting": "wild type neurons", "result": "increased in complexity"}, {"measurement": "number of glutamatergic synapses/spines", "setting": "hippocampal neurons [3]; neurons lacking SorCS2", "result": "not the case"}, {"measurement": "number of inhibitory synapses", "setting": "hippocampal neurons [3]; neurons lacking SorCS2", "result": "not the case"}, {"measurement": "number of glutamatergic synapses/spines", "setting": "hippocampal neurons [3]; wt neurons", "result": "increase"}, {"measurement": "number of inhibitory synapses", "setting": "hippocampal neurons [3]; wt neurons", "result": "increase"}, {"measurement": "phosphorylation of PLCy upon BDNF stimulation", "setting": "PLCy", "result": "significant increase"}, {"measurement": "increase in phosphorylation of TrkB upon BDNF stimulation", "setting": "TrkB", "result": 2.5, "unit": "fold"}, {"measurement": "phosphorylation of SorCS2", "setting": "SorCS2 [4]", "result": "increased phosphorylation"}, {"measurement": "dendritic complexity (branching)", "setting": "hippocampal neurons [5]; GABAergic interneurons lacking SorCS2, 72 hrs", "result": "non-responsive"}, {"measurement": "dendritic complexity (branching)", "setting": "hippocampal neurons [5]; glutamatergic neurons lacking SorCS2, 72 hours", "result": "not the case"}, {"measurement": "dendritic complexity (branching)", "setting": "hippocampal neurons [5]; wt GABAergic interneurons, 72 hrs", "result": "increase in complexity"}, {"measurement": "dendritic complexity (branching)", "setting": "hippocampal neurons [5]; wt glutamatergic neurons, 72 hours", "result": "increase in complexity"}]}
